Reference: patent publication US20260125469A1 (Hoffmann-La Roche, published 2026)
Like-named read-outs stand apart in the source and are kept apart here.

Tests used:
[1] = target: human CD3 on cells (CD3ε) (human, UniProt P07766 23-207); experiment: cell-based or functional assay
[2] = target: T1, Cynomolgus CD3ε stalk-Fc(knob)-Avi/CD3δ stalk-Fc(hole) (cynomolgus); experiment: SPR, TCB captured by anti-PG antibody, antigen as analyte, 25°C
T1 construct: also called cynomolgus CD3ε/δ
Description: (§1) For affinity measurements, TCB molecules were captured on a C1 sensorchip (GE Healthcare) surface with immobilized anti-Fc(P329G) IgG (an antibody that specifically binds human IgG₁ Fc(P329G); “anti-PG antibody”—see WO 2017/072210, incorporated herein by reference). The experimental setup is schematically depicted in FIG. 3. Capture IgG was coupled to the sensorchip surface by direct immobilization of around 400 resonance units (RU) using the standard amine coupling kit (GE Healthcare Life Sciences).
(§2) Kinetic constants were derived using the Biacore T200 Evaluation Software (GE Healthcare Life Sciences), to fit rate equations for 1:1 Langmuir binding by numerical integration. The half-life (t_{1/2}) of the interaction was calculated using the formula t_{1/2}=ln2/koff.
(§3) To analyze the interaction to CD3, TCB molecules were captured for 240 s at 25 nM with a flow rate of 10 μl/min. Human and cynomolgus CD3F stalk-Fc(knob)-Avi/CD36-stalk-Fc(hole) were passed at a concentration of 0.14-100 nM with a flow rate of […] through the flow cells for 240 s. The dissociation was monitored for 800 s.

[3] = target: T2, Human CD3ε stalk-Fc(knob)-Avi/CD3δ stalk-Fc(hole) (human); experiment: as above
T2 construct: Heterodimer of CD3 delta and CD3 epsilon ectodomains fused to human Fc with knob-into-hole; also called human CD3ε/δ; CD3 antigen
Description: as §1, §2, §3

[4] = target: T2, Human CD3ε stalk-Fc(knob)-Avi/CD3δ …; experiment: SPR on immobilized human CD3ε/δ after stress, relative to sample kept at -80°C pH 6
Experimental: In order to assess the effect of the deamidation site removal and its effect on the stability of the antibodies, the optimized anti-CD3 antibodies (in TCB format) were incubated for 14 days at 37° C., pH 7.4 and at 40° C., pH 6 and further analyzed by SPR for their binding capability to human CD3ε/δ. Samples stored at −80° C. pH 6 were used as reference. The reference samples and the samples stressed at 40° C. were in 20 mM His, 140 mM NaCl, pH 6.0, and the samples stressed at 37° C. in PBS, pH 7.4, all at a concentration of 1.0 mg/ml. After the stress period (14 days) samples in PBS were dialyzed back to 20 mM His, 140 mM NaCl, pH 6.0 for further analysis.
(§4) All SPR experiments were performed on a Biacore T200 instrument (GE Healthcare) at 25° C. with HBS-P+ (10 mM HEPES, 150 mM NaCl pH 7.4, 0.05% Surfactant P20) as running and dilution buffer. Biotinylated human CD3ε/δ (see Example 3, SEQ ID NOs 41 and 42) as well as biotinylated anti-huIgG (Capture Select, Thermo Scientific, #7103262100) were immobilized on a Series S Sensor Chip SA (GE Healthcare, #29104992), resulting in surface densities of at least 1000 resonance units (RU). Anti-CD3 antibodies with a concentration of 2 μg/ml were injected for 30 s at a flow rate of 5 μl/min, and dissociation was monitored for 120 s. The surface was regenerated by injecting 10 mM glycine pH 1.5 for 60 s. Bulk refractive index differences were corrected by subtracting blank injections and by subtracting the response obtained from a blank control flow cell. For evaluation, the binding response 5 seconds after injection end was taken. To normalize the binding signal, the CD3 binding was divided by the anti-huIgG response (the signal (RU) obtained upon capture of the CD3 antibody on the immobilized anti-huIgG antibody). The relative binding activity was calculated by referencing each temperature stressed sample to the corresponding, non-stressed sample.
The experiment was performed as described in Example 4, using the TCB molecules prepared in Example 7.

[5] = target: T1, Cynomolgus CD3ε stalk-Fc(knob)-Avi/CD3δ …; experiment: SPR, monovalent IgG captured by anti-PG antibody, antigen as analyte, 25°C
Experimental: (§5) SPR experiments were performed as described in Example 3, with the monovalent IgG molecules prepared in Example 19.
(§6) To analyze the interaction to CD3, IgG molecules were captured for 240 s at 50 nM with a flow rate of 5 μl/min. Human and cynomolgus CD3F stalk-Fc(knob)-Avi/CD36-stalk-Fc(hole) were passed at a concentration of 0.061-250 nM with a flow rate of […] through the flow cells for 300 s. The dissociation was monitored for 800 s.

[6] = target: T2, Human CD3ε stalk-Fc(knob)-Avi/CD3δ …; experiment: as above
Experimental: as §5, §6

[7] = target: T2, Human CD3ε stalk-Fc(knob)-Avi/CD3δ …; experiment: SPR on immobilized human CD3ε/δ after stress, relative to sample kept at -80°C pH 6; remark: listed apart in the source
Experimental: as §4
The experiment was performed as described in Example 4, using the monovalent IgG molecules prepared in Example 19.

human CD3 on cells (CD3ε), sequence (P07766 23-207 limits assumed): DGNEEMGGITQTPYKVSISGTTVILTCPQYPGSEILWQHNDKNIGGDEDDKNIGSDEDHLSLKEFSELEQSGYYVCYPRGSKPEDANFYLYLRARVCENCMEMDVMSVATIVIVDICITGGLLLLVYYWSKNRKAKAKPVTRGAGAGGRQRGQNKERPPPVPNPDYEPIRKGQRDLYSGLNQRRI

B1: CEACAM5-TCB, CEACAM5 CD3 variant P004.042 (bispecific antibody, human IgG1, kappa, L234A L235A)
heavy 1: not shown
heavy 2: QVQLVQSGAEVKKPGSSVKVSCKASGFNIKDTYMHWVRQAPGQGLEWMGRIDPANGNSKYVPKFQGRVTITADTSTSTAYMELSSLRSEDTAVYYCAPFGYYVSDYAMAYWGQGTLVTVSSASTKGPSVFPLAPSSKSTSGGTAALGCLVEDYFPEPVTVSWNSGALTSGVHTFPAVLQSSGLYSLSSVVTVPSSSLGTQTYICNVNHKPSNTKVDEKVEPKSCDKTHTCPPCPAPEAAGGPSVFLFPPKPKDTLMISRTPEVTCVVVDVSHEDPEVKFNWYVDGVEVHNAKTKPREEQYNSTYRVVSVLTVLHQDWLNGKEYKCKVSNKALGAPIEKTISKAKGQPREPQVCTLPPSRDELTKNQVSLSCAVKGFYPSDIAVEWESNGQPENNYKTTPPVLDSDGSFFLVSKLTVDKSRWQQGNVFSCSVMHEALHNHYTQKSLSLSP
light 1: EIVLTQSPATLSLSPGERATLSCRAGESVDIFGVGFLHWYQQKPGQAPRLLIYRASNRATGIPARFSGSGSGTDFTLTISSLEPEDFAVYYCQQTNEDPYTFGQGTKLEIKRTVAAPSVFIFPPSDRKLKSGTASVVCLLNNFYPREAKVQWKVDNALQSGNSQESVTEQDSKDSTYSLSSTLTLSKADYEKHKVYACEVTHQGLSSPVTKSFNRGEC
light 2: EVQLLESGGGLVQPGGSLRLSCAASGFQFDNYAMNWVRQAPGKGLEWVSRIRTKYNEYATYYADSVKGRFTISRDDSKNTLYLQMNSLRAEDTAVYYCVRASNFPQSYVSYFGYWGQGTLVTVSSASVAAPSVFIFPPSDEQLKSGTASVVCLLNNFYPREAKVQWKVDNALQSGNSQESVTEQDSKDSTYSLSSTLTLSKADYEKHKVYACEVTHQGLSSPVTKSFNRGEC
notes: 2+1 IgG CrossFab, inverted; human IgG1 Fc, knob-into-hole, PGLALA; also called P004.042 in CEACAM5-TCB format
With B1 the “EC50 24 h (pM), T-cell mediated lysis of CEACAM5-expressing LS180 tumor cells” value [1] was 59.1 pM, the “EC50 48 h (pM), T-cell mediated lysis of CEACAM5-expressing LS180 tumor cells” value [1] was 36.9 pM and the Kd [2] was 0.641 nM. It also gave a koff [2] of 0.00162 s⁻¹, a kon [2] of 2.54e+06 M⁻¹ s⁻¹ and a t1/2 [2] of 7.1 min. The Kd [3] was 1.31 nM, the koff [3] was 0.00261 s⁻¹ and the kon [3] was 2.02e+06 M⁻¹ s⁻¹. The t1/2 [3] was 4.42 min, the “binding activity [%] after 2 weeks at pH 6.0/40°C” value [4] was 100% and the “binding activity [%] after 2 weeks at pH 7.4/37°C” value [4] was 99%.

B2: anti-CD3 antibody clone P035.093 in monovalent IgG format (antibody)
heavy: not shown
chain: DKTHTCPPCPAPEAAGGPSVFLFPPKPKDTLMISRTPEVTCVVVDVSHEDPEVKFNWYVDGVEVHNAKTKPREEQYNSTYRVVSVLTVLHQDWLNGKEYKCKVSNKALGAPIEKTISKAKGQPREPQVCTLPPSRDELTKNQVSLSCAVKGFYPSDIAVEWESNGQPENNYKTTPPVLDSDGSFFLVSKLTVDKSRWQQGNVFSCSVMHEALHNHYTQKSLSLSP
light: EVQLLESGGGLVQPGGSLRLSCAASGFTFSSYAMNWVRQAPGKGLEWVSRIRSKYNNYATYYADSVKGRFTISRDDSKNTLYLQMNSLRAEDTAVYYCVRASNFPASYVSYFAYWGQGTLVTVSSASVAAPSVFIFPPSDEQLKSGTASVVCLLNNFYPREAKVQWKVDNALQSGNSQESVTEQDSKDSTYSLSSTLTLSKADYEKHKVYACEVTHQGLSSPVTKSFNRGEC
notes: also called monovalent IgG P035.093
B2 showed a Kd [5] of 0.224 nM, a koff [5] of 0.000981 s⁻¹ and a kon [5] of 4.38e+06 M⁻¹ s⁻¹. It also gave a t1/2 [5] of 11.8 min, a Kd [6] of 0.456 nM and a koff [6] of 0.0014 s⁻¹. The kon [6] was 3.08e+06 M⁻¹ s⁻¹, the t1/2 [6] was 8.25 min and the “binding activity [%] after 2 weeks at pH 6.0/40°C” value [7] was 100%. The “binding activity [%] after 2 weeks at pH 7.4/37°C” value [7] was 93%.

B3: CD3orig in monovalent IgG format (antibody)
heavy: not shown
chain: DKTHTCPPCPAPEAAGGPSVFLFPPKPKDTLMISRTPEVTCVVVDVSHEDPEVKFNWYVDGVEVHNAKTKPREEQYNSTYRVVSVLTVLHQDWLNGKEYKCKVSNKALGAPIEKTISKAKGQPREPQVCTLPPSRDELTKNQVSLSCAVKGFYPSDIAVEWESNGQPENNYKTTPPVLDSDGSFFLVSKLTVDKSRWQQGNVFSCSVMHEALHNHYTQKSLSLSP
light: EVQLLESGGGLVQPGGSLRLSCAASGFTFSTYAMNWVRQAPGKGLEWVSRIRSKYNNYATYYADSVKGRFTISRDDSKNTLYLQMNSLRAEDTAVYYCVRHGNFGNSYVSWFAYWGQGTLVTVSSASVAAPSVFIFPPSDEQLKSGTASVVCLLNNFYPREAKVQWKVDNALQSGNSQESVTEQDSKDSTYSLSSTLTLSKADYEKHKVYACEVTHQGLSSPVTKSFNRGEC
notes: also called monovalent IgG CD3orig
For B3, the Kd [6] was 4.94 nM, the koff [6] was 0.0029 s⁻¹ and the kon [6] was 587000 M⁻¹ s⁻¹. The t1/2 [6] was 3.98 min, the “binding activity [%] after 2 weeks at pH 6.0/40°C” value [7] was 97% and the “binding activity [%] after 2 weeks at pH 7.4/37°C” value [7] was 60%.
